# Results as given in PMC3281020.
# What was measured:
# [1] = test system: Isw1a complex (TAP-purified via Ioc3-TAP, strain YTT1168) (yeast, strain YTT1168); assay: magnetic tweezers; conditions: no ATP, end-tethered to glass and bead (1 um), TEM/EMSA: 20 mM (Methods: 10 mM) Tris-HCl pH 8.0, 30 mM KCl, 17.5 mM NaCl, 1 mM Hepes pH 7.6, 0.75% glycerol, 20 min at 30 C, 750 nM DNA in bp, CHD1 tweezers: …
# [2] = test system: Isw1a complex (TAP-purified via Ioc3-TAP, strain YTT1168) (yeast, strain YTT1168); assay: TEM, competition; conditions: TEM/EMSA: 20 mM (Methods: 10 mM) Tris-HCl pH 8.0, 30 mM KCl, 17.5 mM NaCl, 1 mM Hepes pH 7.6, 0.75% glycerol, 20 min at 30 C, 750 nM DNA in bp, CHD1 tweezers: …
# [3] = test system: Isw1a complex (TAP-purified via Ioc3-TAP, strain YTT1168) (yeast, strain YTT1168); assay: TEM; conditions: no ATP, TEM/EMSA: 20 mM (Methods: 10 mM) Tris-HCl pH 8.0, 30 mM KCl, 17.5 mM NaCl, 1 mM Hepes pH 7.6, 0.75% glycerol, 20 min at 30 C, 750 nM DNA in bp, CHD1 tweezers: …
substance,measurement,setting,value
3.6 kbp tethered DNA (magnetic trap),Kd,"[1]; F about 1 pN, tau_on 64 s, tau_off 69 s",1 nM
same,Kd,"[1]; extrapolated to zero force, single nucleation complex",0.001 nM
pBR322 negatively supercoiled plasmid,binding signal (% unbound DNA),"[2]; 2 nM Isw1a, 1:1 mixture with linear DNA",59
same,binding signal (% unbound DNA),"[2]; 10 nM Isw1a, 1:1 mixture with linear DNA",33
same,binding signal (% unbound DNA),"[2]; 50 nM Isw1a, 1:1 mixture with linear DNA",6
same,binding signal (% unbound DNA),[3]; 2 nM Isw1a,57
same,binding signal (% unbound DNA),[3]; 10 nM Isw1a,37
same,binding signal (% unbound DNA),[3]; 50 nM Isw1a,10
"linear pBR322 EcoRV-SspI fragment, 3983 bp",binding signal (% unbound DNA),"[2]; 2 nM Isw1a, 1:1 mixture with scDNA",90
same,binding signal (% unbound DNA),"[2]; 10 nM Isw1a, 1:1 mixture with scDNA",73
same,binding signal (% unbound DNA),"[2]; 50 nM Isw1a, 1:1 mixture with scDNA",25
same,binding signal (% unbound DNA),[3]; 2 nM Isw1a,82
same,binding signal (% unbound DNA),[3]; 10 nM Isw1a,53
same,binding signal (% unbound DNA),[3]; 50 nM Isw1a,20
